One series has as its system animal cells. Particulars: reported, no source named; cited from earlier work.
Series [1] in a line: Quercetinase (quercetin 2,3-dioxygenase) activity of in vitro-translated AtPirin1, absorbance spectrum. The class given is biochemical, Arabidopsis thaliana. The protocol: Full-length PIRIN1 template was prepared, amplified and purified by the methods described (Lapik and Kaufman, Plant Cell. 15(7):1578-90, 2003; Warpeha et al., Plant Physiol. 140:844-55, 2006). Pirin1 proteins were individually produced by coupled in vitro transcription/translation using TNT T7 Coupled Wheat Germ Extract System (Promega; Madison, Wis.) as directed and as modified previously (Warpeha et al., Plant Physiol. 140:844-55, 2006). Translated Pirin1 was subsequently incubated with quercetin in complete darkness in a 26° C. circulating water bath for 15 minutes.
The quercetin 2,3-dioxygenase activity of Pirin1 was determined as described in Adams and Jai (J. Biol. Chem. 280(31):28675-82, 2005). Briefly, the quercetin 2,3-dioxygenase activity of pirin wase assayed at 295 K for 5 min in a reaction mixture containing 50 mm NaH2PO4, pH 8.0, 300 mm NaCl, 60 μm quercetin in Me2SO, and 18.5 nm enzyme. Activity was observed by following the decrease in the absorbance maximum for quercetin, which occurs at 384 nm at pH 8.0. The inhibitors kojic acid, sodium diethyldithiocarbamate, and 1,10-phenanthroline monohydrochloride were dissolved in Me2SO and added to the reactions at a final concentration of 50 nm.
(§1) Translated Pirin1 was prepared as described above and in vitro association assays were conducted in assay buffer (pre-incubations included magnesium) at 26° C. (Adams and Jai, J. Biol. Chem. 280(31):28675-82, 2005; Warpeha et al., Plant Physiol. 140:844-55, 2006). GPA1 was incubated with Pirin1 in a 1:1 ratio. “Activated” Pirin1 was achieved by pre-incubation with 100 μM GTPγS (a non-hydrolysable GTP analog). “Inactivated” Pirin1 was achieved by pre-incubation with GDP, or GDPγS (a non-hydrolysable GDP analog). Both pre-incubations occurred overnight in darkness at 10° C.

Series [2] concerns the target T1, In vitro-translated AtGPA1 pre-incubated with GTPgammaS (permanently activated conformation) (Arabidopsis thaliana, UniProt P18064 1-383).
T1 construct: Same polypeptide as m3 but a different nucleotide state; also called GPA1-GTPgammaS
T1 sequence (looked up): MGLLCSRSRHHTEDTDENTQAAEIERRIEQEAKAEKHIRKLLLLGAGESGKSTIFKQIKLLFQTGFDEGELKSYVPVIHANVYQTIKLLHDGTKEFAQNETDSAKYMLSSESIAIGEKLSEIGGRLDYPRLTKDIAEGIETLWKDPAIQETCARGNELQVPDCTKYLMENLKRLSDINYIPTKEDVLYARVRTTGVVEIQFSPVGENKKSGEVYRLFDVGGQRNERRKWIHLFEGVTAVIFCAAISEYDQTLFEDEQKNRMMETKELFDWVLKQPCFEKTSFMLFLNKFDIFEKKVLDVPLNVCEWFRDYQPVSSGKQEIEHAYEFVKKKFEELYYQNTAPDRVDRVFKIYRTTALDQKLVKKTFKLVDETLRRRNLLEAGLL
In words: in vitro association/activity assay, GPA1:Pirin1 1:1, interaction inferred from loss of quercetinase activity. The procedure:
as §1
(§2) The observed AtPirin1 quercetinase activity is regulated through its' interactions with GPA. […] AtGPA1 bound to one of the two non-hydrolyzable analogs was then incubated with AtPirin1 and quercetin in conditions identical to that for FIG. 1.

Series [3] concerns the target T2, In vitro-translated AtGPA1 pre-incubated with GDPalphaS (permanently inactive conformation) (Arabidopsis thaliana, UniProt P18064 1-383).
T2 construct: Same polypeptide as m2 but a different nucleotide state; also called GPA1-GDPalpha
T2 sequence (looked up): T1 sequence (looked up)
In words: in vitro association/activity assay, GPA1:Pirin1 1:1, association inferred from the quercetin absorbance spectrum. The procedure:
as §1, §2

Regarding `O=c1c(O)c(-c2ccc(O)c(O)c2)oc2cc(O)cc(O)c12` [quercetin], the “concentration considered toxic in animal cells” value in the series on animal cells is “above 20 μM”.

B1: Arabidopsis thaliana Pirin1 (AtPirin1), in vitro-translated (enzyme)
chain: MTYENNSVPRIVIKKVLAKLEKEGEGAVVRNGITKIDQKLLDPFVLLVEFSFSLSAGFPDHPHRGFESVTYMLQGGIIHKDPKGHKGTIQAGDVQWMTAGRGIIHSEFPEEEVNNGLQLWINLPSTEKMTEPKYKELSSLDIPRAEENGVEVKVIAGDSMGIKSPVYTRTPTMFLDFTLKPGSQTHQTVPESWTAFAYIIEGDEGVFGSLNSSAISAHHVVVFGPGDLVSVWNKSTSRSLRFLLIAGEPIGEPVVQCGPFVMNSQAEIDMAFDDYQNAKNGFEMAKC
notes: also called PRN1; Prn1
On to B1, for which the “quercetinase activity with activated conformation of AtGPA1” value in series [1] (AtGPA1 pre-incubated with GTPγS, FIG. 2) is “no quercetinase activity”. Also, the “absorbance peak of quercetin with AtPirin1 and inactivated conformation of AtGPA1” value in series [1] (AtGPA1 pre-incubated with non-hydrolysable GDP analog, FIG. 2) is reported as 405-410 nm. In addition, the “quercetinase activity (cleavage of quercetin)” value in series [1] (AtPirin1 alone with quercetin, 15 min at 26° C., FIG. 1) is reported as “specific cleavage of quercetin”. For the same molecule, the “absorbance peak of quercetin after addition of AtPirin1” value in series [1] (AtPirin1 alone, within 15 min at 26° C., quercetin alone 384 nm) is reported as 405-410 nm. For the same molecule, the binding result in series [2] and in series [3] was “binds” in each case.

Source of the values: US20130133108A1, “EXTRACTS FROM PIRIN+ AND PIRIN- PLANTS AND USES THEREOF” (priority 2010, published 2013).
